Test results: patent US20170267783A1 (published 2017)
Numbering of substitutions follows the chain as printed. One block for each binder: values may come before it.

What was measured:
[1] = molecular target: extracellular matrix (ECM; BD Matrigel); assay: ECL on Matrigel-coated plate, signal divided by that of MRAH-G1d/MRAL-k0
soluble human CD3ε chain = molecular target: T1, soluble human CD3ε chain (human, UniProt P07766 23-126); assay: SPR (Biacore)
T1 construct: also called CD3 epsilon
T1 sequence (P07766 23-126 limits assumed): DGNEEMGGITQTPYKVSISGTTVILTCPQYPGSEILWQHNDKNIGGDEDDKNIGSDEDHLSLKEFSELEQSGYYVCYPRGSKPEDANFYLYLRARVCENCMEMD

- ECM binding ratio (standard = 1) (ratio to standard antibody) [1]: 50.4
B1: TR01H040-E2702GsKsc/H0610-E2704sEpsc/L0208-k0 (bispecific antibody, human IgG4 S228P, kappa, N297A)
heavy 1: QVQLVESGGGLVQPGRSLRLSCAASGFTFSNAWMHWVRQAPGKGLEWVAQIKDKSQNYATYYAESVKGRFTISRADSKNSIYLQMNSLKTEDTAVYYCRYVHYSASYGVDAWGQGTTVTVSSASTKGPSVFPLAPCSRSTSESTAALGCLVKDYFPEPVTVSWNSGALTSGVHTFPAVLQSSGLYSLSSVVTVPSSSLGTKTYTCNVDHKPSNTKVDKRVESKYGPPCPPCPAPEFRGGPKVFLFPPKPKDTLMISRTPEVTCVVVDVSQEDPEVQFNWYVDGVEVHNAKTKPREEQFASTYRVVSVLTVLHQDWLNGKEYKCKVSNKGLPSSIEKTISKAKGQPREPQVYTLPPSQKEMTKNQVSLTCLVKGFYPSDIAVEWESNGQPENNYKTTPPVLDSDGSFFLYSKLTVDKSRWQEGNVFSCSVMHEALHNRYTQKSLSLSP
heavy 2: QVQLVQSGAEVKKPGASVKVSCKASGYTFTDYEMHWIRQPPGQGLEWIGAIDGKTPDTAYSQKFKGRVTLTADKSTSTAYMELSSLTSEDTAVYYCTRFYSYTYWGQGTLVTVSSASTKGPSVFPLAPCSRSTSESTAALGCLVKDYFPEPVTVSWNSGALTSGVHTFPAVLQSSGLYSLSSVVTVPSSSLGTQTYTCNVDHKPSNTKVDKRVESKYGPPCPPCPAPEFRGGPKVFLFPPKPKDTLMISRTPEVTCVVVDVSQEDPEVQFNWYVDGVEVHNAKTKPREEQFASTYRVVSVLTVLHQDWLNGKEYKCKVSNKGLPSSIEKTISKAKGQPREPQVYTLPPSQEEMTKNQVSLTCLVKGFYPSDIAVEWESNGQPENNYKTTPPVLDSDGSFFLYSKLTVDKSRWQEGNVFSCSVMHEALHNHYTQESLSLSP
light: DIVMTQSPLSLPVTPGEPASISCRSSQSPVHSNRNTYLHWYQQKPGQAPRLLIYKVSNRFWGVPDRFSGSGSGTDFTLKISRVEAEDVGVYYCYQGTQVPYTFGQGTKLEIKRTVAAPSVFIFPPSDEQLKSGTASVVCLLNNFYPREAKVQWKVDNALQSGNSQESVTEQDSKDSTYSLSSTLTLSKADYEKHKVYACEVTHQGLSSPVTKSFNRGEC

- ECM binding ratio (standard = 1) (ratio to standard antibody) [1]: 15.4
B2: TR01H040-E2702GsKsc/H0610-E2704sEpsc/L0206-k0 (bispecific antibody, human IgG4 S228P, kappa, N297A)
heavy 1: B1 heavy 1
heavy 2: B1 heavy 2
light: B1 light with W61S

- ECM binding ratio (standard = 1) (ratio to standard antibody) [1]: 0.5
B3: TR01H067-E2702GsKsc/GCH054-E2704sEpsc/L0201-k0 (bispecific antibody, human IgG4 S228P, kappa, N297A)
heavy 1: B1 heavy 1 with A75D, I81L, S104A
heavy 2: B1 heavy 2 with K19T, Q43E, K54E, Q62E
light: B1 light with S28P, W61S, Y94G

- ECM binding ratio (standard = 1) (ratio to standard antibody) [1]: 0.7
B4: TR01H109-E2702GsKsc/GCH065-E2704sEpsc/L0011-k0 (bispecific antibody, human IgG4 S228P, kappa, N297A)
heavy 1: B1 heavy 1 with Y62V, A75D, I81L, S104A, S106G
heavy 2: B1 heavy 2 with K19T, Q43E, K54P, Q62E
light: B1 light with S28P, P29L, W61S, Y94G

- ECM binding ratio (standard = 1) (ratio to standard antibody) [1]: 0.8
B5: TR01H040-E2702GsKsc/H0610-E2704sEpsc/L0203-k0 (bispecific antibody, human IgG4 S228P, kappa, N297A)
heavy 1: B1 heavy 1
heavy 2: B1 heavy 2
light: B1 light with L38I, W61S, Y94G

- ECM binding ratio (standard = 1) (ratio to standard antibody) [1]: 2.5
B6: TR01H113-E2702GsKsc/GCH065-E2704sEpsc/L0011-k0 (bispecific antibody, human IgG4 S228P, kappa, N297A)
heavy 1: B1 heavy 1 with L11V, R16G, Y62V, S104A, S106G, A111I
heavy 2: B1 heavy 2 with K19T, Q43E, K54P, Q62E
light: B1 light with S28P, P29L, W61S, Y94G

- ECM binding ratio (standard = 1) (ratio to standard antibody) [1]: 0.3
B7: TR01H113-E2702sKsc/GCH065-E2704sEpsc/L0011-k0 (bispecific antibody, human IgG4 S228P, kappa, N297A)
heavy 1: B1 heavy 1 with L11V, R16G, Y62V, S104A, S106G, A111I, R437H
heavy 2: B1 heavy 2 with K19T, Q43E, K54P, Q62E
light: B1 light with S28P, P29L, W61S, Y94G

- ECM binding ratio (standard = 1) (ratio to standard antibody) [1]: 3.3
B8: TR01H067-E2702GsKsc/GCH054-E2704sEpsc/L0212-k0 (bispecific antibody, human IgG4 S228P, kappa, N297A)
heavy 1: B1 heavy 1 with A75D, I81L, S104A
heavy 2: B1 heavy 2 with K19T, Q43E, K54E, Q62E
light: B1 light with S25P, W61S

- ECM binding ratio (standard = 1) (ratio to standard antibody) [1]: 0.6
B9: TR01H067-E2702GsKsc/GCH054-E2704sEpsc/L0222-k0 (bispecific antibody, human IgG4 S228P, kappa, N297A)
heavy 1: B1 heavy 1 with A75D, I81L, S104A
heavy 2: B1 heavy 2 with K19T, Q43E, K54E, Q62E
light: B1 light with L38I, H39Q, W61S

- ECM binding ratio (standard = 1) (ratio to standard antibody) [1]: 0.8
B10: TR01H040-E2702GsKsc/H0610-E2704sEpsc/L0201-k0 (bispecific antibody, human IgG4 S228P, kappa, N297A)
heavy 1: B1 heavy 1
heavy 2: B1 heavy 2
light: B1 light with S28P, W61S, Y94G

- ECM binding ratio (standard = 1) (ratio to standard antibody) [1]: 7.4
B11: TR01H040-E2702GsKsc/H0610-E2704sEpsc/L0209-k0 (bispecific antibody, human IgG4 S228P, kappa, N297A)
heavy 1: B1 heavy 1
heavy 2: B1 heavy 2
light: B1 light with L38I, W61S

- ECM binding ratio (standard = 1) (ratio to standard antibody) [1]: 0.8
B12: TR01H040-E2702GsKsc/H0610-E2704sEpsc/L0000-k0 (bispecific antibody, human IgG4 S228P, kappa, N297A)
heavy 1: B1 heavy 1
heavy 2: B1 heavy 2
light: B1 light with P29L, W61S, Y94G

- ECM binding ratio (standard = 1) (ratio to standard antibody) [1]: 0.7
B13: TR01H082-E2702GsKsc/GCH094-E2704sEpsc/L0011-k0 (bispecific antibody, human IgG4 S228P, kappa, N297A)
heavy 1: B1 heavy 1 with A75D, I81L, S104A, S106G
heavy 2: B1 heavy 2 with K19T, I37V, P40A, Q43E, I48M, K54E, Q62E
light: B1 light with S28P, P29L, W61S, Y94G

- ECM binding ratio (standard = 1) (ratio to standard antibody) [1]: 1.1
B14: TR01H082-E2702GsKsc/GCH094-E2704sEpsc/L0201-k0 (bispecific antibody, human IgG4 S228P, kappa, N297A)
heavy 1: B1 heavy 1 with A75D, I81L, S104A, S106G
heavy 2: B1 heavy 2 with K19T, I37V, P40A, Q43E, I48M, K54E, Q62E
light: B1 light with S28P, W61S, Y94G

- ECM binding ratio (standard = 1) (ratio to standard antibody) [1]: 4.4
B15: TR01H040-E2702GsKsc/H0610-E2704sEpsc/L0204-k0 (bispecific antibody, human IgG4 S228P, kappa, N297A)
heavy 1: B1 heavy 1
heavy 2: B1 heavy 2
light: B1 light with W61R, Y94G

- ECM binding ratio (standard = 1) (ratio to standard antibody) [1]: 1.7
B16: TR01H082-E2702GsKsc/GCH065-E2704sEpsc/L0011-k0 (bispecific antibody, human IgG4 S228P, kappa, N297A)
heavy 1: B1 heavy 1 with A75D, I81L, S104A, S106G
heavy 2: B1 heavy 2 with K19T, Q43E, K54P, Q62E
light: B1 light with S28P, P29L, W61S, Y94G

- ECM binding ratio (standard = 1) (ratio to standard antibody) [1]: 1.3
B17: TR01H084-E2702GsKsc/GCH065-E2704sEpsc/L0011-k0 (bispecific antibody, human IgG4 S228P, kappa, N297A)
heavy 1: B1 heavy 1 with L11V, R16G, S104A, S106G, A111I
heavy 2: B1 heavy 2 with K19T, Q43E, K54P, Q62E
light: B1 light with S28P, P29L, W61S, Y94G

- ECM binding ratio (standard = 1) (ratio to standard antibody) [1]: 0.4
B18: TR01H109-E2702GsKsc/GCH094-E2704sEpsc/L0011-k0 (bispecific antibody, human IgG4 S228P, kappa, N297A)
heavy 1: B1 heavy 1 with Y62V, A75D, I81L, S104A, S106G
heavy 2: B1 heavy 2 with K19T, I37V, P40A, Q43E, I48M, K54E, Q62E
light: B1 light with S28P, P29L, W61S, Y94G

- ECM binding ratio (standard = 1) (ratio to standard antibody) [1]: 15.5
B19: TR01H040-E2702GsKsc/H0610-E2704sEpsc/L0211-k0 (bispecific antibody, human IgG4 S228P, kappa, N297A)
heavy 1: B1 heavy 1
heavy 2: B1 heavy 2
light: B1 light with S28P, W61S

- ECM binding ratio (standard = 1) (ratio to standard antibody) [1]: 1.2
B20: TR01H084-E2702GsKsc/GCH094-E2704sEpsc/L0011-k0 (bispecific antibody, human IgG4 S228P, kappa, N297A)
heavy 1: B1 heavy 1 with L11V, R16G, S104A, S106G, A111I
heavy 2: B1 heavy 2 with K19T, I37V, P40A, Q43E, I48M, K54E, Q62E
light: B1 light with S28P, P29L, W61S, Y94G

- ECM binding ratio (standard = 1) (ratio to standard antibody) [1]: 1.6
B21: TR01H113-E2702GsKsc/GCH094-E2704sEpsc/L0011-k0 (bispecific antibody, human IgG4 S228P, kappa, N297A)
heavy 1: B1 heavy 1 with L11V, R16G, Y62V, S104A, S106G, A111I
heavy 2: B1 heavy 2 with K19T, I37V, P40A, Q43E, I48M, K54E, Q62E
light: B1 light with S28P, P29L, W61S, Y94G

- Kd (soluble human CD3ε chain): 4.76 nM
B22: TR01H002-E22Hh/GLS3108-k0/GL4-E22Hk/H0000-E22L (bispecific antibody, human IgG1, kappa, L234A L235A, N297A)
heavy 1: QVQLVESGGGVVQPGRSLRLSCAASGFTFSNAWMHWVRQAPGKGLEWVAQIKAKSNNYKKYYAESVKGRFTISRDDSKNSLYLQMNSLKTEDTAVYYCRYVHYYYYYGVQAWGQGTTVTVSSASTKGPSVFPLAPSSKSTSGGTAALGCLVKDYFPEPVTVSWNSGALTSGVHTFPAVLQSSGLYSLSSVVTVPSSSLGTQTYICNVNHKPSNTKVDKKVEPKSCDKTHTCPPCPAPEAAGGPSVFLFPPKPKDTLMISRTPEVTCVVVDVSHEDPEVKFNWYVDGVEVHNAKTKPREEQYASTYRVVSVLTVLHQDWLNGKEYKCKVSNKALPAPIEKTISKAKGQPREPQVYTLPPSRCELTKNQVSLSCAVKGFYPSDIAVEWESNGQPENNYKTTPPVLDSDGSFFLVSKLTVDKSRWQQGNVFSCSVMHEALHNHYTQKSLSLSPDYKDDDDK
light 1: B1 light with P29L, H39S, W61S, Y94G
heavy 2: DIVMTQSPLSLPVTPGEPASISCRSSQSLVHSNRNTYLHWYQQKPGQAPRLLIYKVSNRFSGVPDRFSGSGSGTDFTLKISRVEAEDVGVYYCSQNTHVPPTFGQGTKLEIKSSASTKGPSVFPLAPSSKSTSGGTAALGCLVKDYFPEPVTVSWNSGALTSGVHTFPAVLQSSGLYSLSSVVTVPSSSLGTQTYICNVNHKPSNTKVDKKVEPKSCDKTHTCPPCPAPEAAGGPSVFLFPPKPKDTLMISRTPEVTCVVVDVSHEDPEVKFNWYVDGVEVHNAKTKPREEQYASTYRVVSVLTVLHQDWLNGKEYKCKVSNKALPAPIEKTISKAKGQPREPQVCTLPPSRDELTKNQVSLWCLVKGFYPSDIAVEWESNGQPENNYKTTPPVLDSDGSFFLYSKLTVDKSRWQQGNVFSCSVMHEALHNHYTQKSLSLSPHHHHHHHH
light 2: QVQLVQSGAEVKKPGASVKVSCKASGYTFTDYEMHWIRQPPGQGLEWIGAIDPKTGDTAYSQKFKGRVTLTADKSTSTAYMELSSLTSEDTAVYYCTRFYSYTYWGQGTLVTVSSASVAAPSVFIFPPSDEQLKSGTASVVCLLNNFYPREAKVQWKVDNALQSGNSQESVTEQDSKDSTYSLSSTLTLSKADYEKHKVYACEVTHQGLSSPVTKSFNRGEC
notes: CD3 arm + GPC3 arm with VH/VL exchanged
